From patent US20260242448A1

What was measured:
[1] = target: S protein of the SARS-CoV-2 Delta strain on pseudo-virus (SARS-CoV-2 Delta strain); assay: cell-based or functional assay
[2] = target: S protein of the SARS-CoV-2 BF.7 strain on pseudo-virus (SARS-CoV-2 BF.7 strain); assay: cell-based or functional assay
[3] = target: S protein of the SARS-CoV-2 BA.4/5 strains on pseudo-virus (SARS-CoV-2 BA.4/5 strain); assay: cell-based or functional assay
[4] = target: S protein of the SARS-CoV-2 XBB strain on pseudo-virus (SARS-CoV-2 XBB strain); assay: cell-based or functional assay
[5] = target: S protein of the SARS-CoV-2 BQ.1 strain on pseudo-virus (SARS-CoV-2 BQ.1 strain); assay: cell-based or functional assay
[6] = target: S protein of the SARS-CoV-2 BA.2.75 strain on pseudo-virus (SARS-CoV-2 BA.2.75 strain); assay: cell-based or functional assay
[7] = target: S protein of the SARS-CoV-2 BA.1 strain on pseudo-virus (SARS-CoV-2 BA.1 strain); assay: cell-based or functional assay
[8] = target: S protein of the SARS-CoV-2 XBB.1.5 strain on pseudo-virus (SARS-CoV-2 XBB.1.5 strain); assay: cell-based or functional assay
[9] = target: S protein of the SARS-CoV-2 BQ.1.1 strain on pseudo-virus (SARS-CoV-2 BQ.1.1 strain); assay: cell-based or functional assay
[10] = target: SARS-CoV-2 (BF.7) Spike RBD (SARS-CoV-2 BF.7 strain); assay: SPR, Biacore 8K; antibody captured on Protein A chip, RBD as analyte
[11] = target: SARS-CoV-2 (BA.5) Spike RBD (SARS-CoV-2 BA.5 strain); assay: as above
[12] = target: SARS-CoV-2 (BF.7) Spike RBD (SARS-CoV-2 BF.7 strain); assay: ELISA on plate-coated RBD (1 µg/mL), HRP anti-human Fc detection, OD450

Chain of LY-CoV1404 (antibody) (VH): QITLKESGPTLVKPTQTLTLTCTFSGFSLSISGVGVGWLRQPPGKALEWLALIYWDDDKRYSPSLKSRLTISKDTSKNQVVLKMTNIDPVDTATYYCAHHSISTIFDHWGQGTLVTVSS
Chain of LY-CoV1404 (antibody) (VL): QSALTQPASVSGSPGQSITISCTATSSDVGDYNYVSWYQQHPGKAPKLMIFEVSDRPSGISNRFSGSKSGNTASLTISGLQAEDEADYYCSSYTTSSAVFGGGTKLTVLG

LY-CoV1404 (antibody)
Neutralization activity (IC50) against pseudo-virus [1]: 3.05 ng/mL
Neutralization activity (IC50) against pseudo-virus [2]: 2.14 ng/mL
Neutralization activity (IC50) against pseudo-virus [3]: 1.22 ng/mL
Neutralization activity (IC50) against pseudo-virus [4]: > 2000 ng/mL
Neutralization activity (IC50) against pseudo-virus [5]: > 2000 ng/mL
Neutralization activity (IC50) against pseudo-virus [6]: 25.1 ng/mL
Neutralization activity (IC50) against pseudo-virus [7]: 1.44 ng/mL
Neutralization activity (IC50) against pseudo-virus [8]: > 2000 ng/mL
Neutralization activity (IC50) against pseudo-virus [9]: > 2000 ng/mL
Kd [10]: 0.162 nM
koff [10]: 0.000148 s⁻¹
kon [10]: 910000 M⁻¹ s⁻¹
Kd [11]: 0.184 nM
koff [11]: 0.000264 s⁻¹
kon [11]: 1.44e+06 M⁻¹ s⁻¹
EC50 [12]: 0.111 nM
